This assay concerns HCoV-OC43 gRNA and sgRNA. The class given is binding. To be noted: OC43 Probe II, infected cells, tested against no-probe control.

Where two headings read alike, the source gives them in different places.

B1: HNANPA3 (protein, UniProt P51991 1-378, looked up)
Heterogeneous nuclear …: MEVKPPPGRPQPDSGRRRRRRGEEGHDPKEPEQLRKLFIGGLSFETTDDSLREHFEKWGTLTDCVVMRDPQTKRSRGFGFVTYSCVEEVDAAMCARPHKVDGRVVEPKRAVSREDSVKPGAHLTVKKIFVGGIKEDTEEYNLRDYFEKYGKIETIEVMEDRQSGKKRGFAFVTFDDHDTVDKIVVQKYHTINGHNCEVKKALSKQEMQSAGSQRGRGGGSGNFMGRGGNFGGGGGNFGRGGNFGGRGGYGGGGGGSRGSYGGGDGGYNGFGGDGGNYGGGPGYSSRGGYGGGGPGYGNQGGGYGGGGGYDGYNEGGNFGGGNYGGGGNYNDFGNYSGQQQSNYGPMKGGSFGGRSSGSPYGGGYGSGGGSGGYGSRRF
Take B1: the “target (unweighted spectral count)” value (12 hpi (type n_12_v)) was 14.

B2: KRT9 (protein, UniProt P35527 1-623, looked up)
Keratin, type I cytoskeletal 9: MSCRQFSSSYLSRSGGGGGGGLGSGGSIRSSYSRFSSSGGGGGGGRFSSSSGYGGGSSRVCGRGGGGSFGYSYGGGSGGGFSASSLGGGFGGGSRGFGGASGGGYSSSGGFGGGFGGGSGGGFGGGYGSGFGGFGGFGGGAGGGDGGILTANEKSTMQELNSRLASYLDKVQALEEANNDLENKIQDWYDKKGPAAIQKNYSPYYNTIDDLKDQIVDLTVGNNKTLLDIDNTRMTLDDFRIKFEMEQNLRQGVDADINGLRQVLDNLTMEKSDLEMQYETLQEELMALKKNHKEEMSQLTGQNSGDVNVEINVAPGKDLTKTLNDMRQEYEQLIAKNRKDIENQYETQITQIEHEVSSSGQEVQSSAKEVTQLRHGVQELEIELQSQLSKKAALEKSLEDTKNRYCGQLQMIQEQISNLEAQITDVRQEIECQNQEYSLLLSIKMRLEKEIETYHNLLEGGQEDFESSGAGKIGLGGRGGSGGSYGRGSRGGSGGSYGGGGSGGGYGGGSGSRGGSGGSYGGGSGSGGGSGGGYGGGSGGGHSGGSGGGHSGGSGGNYGGGSGSGGGSGGGYGGGSGSRGGSGGSHGGGSGFGGESGGSYGGGEEASGSGGGYGGGSGKSSHS
Take B2: the “target (unweighted spectral count)” value (24 hpi (type n_24_v)) is listed as 53.

B3: DRX30 (protein, UniProt Q7L2E3 1-1194, looked up)
ATP-dependent RNA helicase …: MFSLDSFRKDRAQHRQRQCKLPPPRLPPMCVNPTPGGTISRASRDLLKEFPQPKNLLNSVIGRALGISHAKDKLVYVHTNGPKKKKVTLHIKWPKSVEVEGYGSKKIDAERQAAAAACQLFKGWGLLGPRNELFDAAKYRVLADRFGSPADSWWRPEPTMPPTSWRQLNPESIRPGGPGGLSRSLGREEEEDEEEELEEGTIDVTDFLSMTQQDSHAPLRDSRGSSFEMTDDDSAIRALTQFPLPKNLLAKVIQIATSSSTAKNLMQFHTVGTKTKLSTLTLLWPCPMTFVAKGRRKAEAENKAAALACKKLKSLGLVDRNNEPLTHAMYNLASLRELGETQRRPCTIQVPEPILRKIETFLNHYPVESSWIAPELRLQSDDILPLGKDSGPLSDPITGKPYVPLLEAEEVRLSQSLLELWRRRGPVWQEAPQLPVDPHRDTILNAIEQHPVVVISGDTGCGKTTRIPQLLLERYVTEGRGARCNVIITQPRRISAVSVAQRVSHELGPSLRRNVGFQVRLESKPPSRGGALLFCTVGILLRKLQSNPSLEGVSHVIVDEVHERDVNTDFLLILLKGLQRLNPALRLVLMSATGDNERFSRYFGGCPVIKVPGFMYPVKEHYLEDILAKLGKHQYLHRHRHHESEDECALDLDLVTDLVLHIDARGEPGGILCFLPGWQEIKGVQQRLQEALGMHESKYLILPVHSNIPMMDQKAIFQQPPVGVRKIVLATNIAETSITINDIVHVVDSGLHKEERYDLKTKVSCLETVWVSRANVIQRRGRAGRCQSGFAYHLFPRSRLEKMVPFQVPEILRTPLENLVLQAKIHMPEKTAVEFLSKAVDSPNIKAVDEAVILLQEIGVLDQREYLTTLGQRLAHISTDPRLAKAIVLAAIFRCLHPLLVVVSCLTRDPFSSSLQNRAEVDKVKALLSHDSGSDHLAFVRAVAGWEEVLRWQDRSSRENYLEENLLYAPSLRFIHGLIKQFSENIYEAFLVGKPSDCTLASAQCNEYSEEEELVKGVLMAGLYPNLIQVRQGKVTRQGKFKPNSVTYRTKSGNILLHKSTINREATRLRSRWLTYFMAVKSNGSVFVRDSSQVHPLAVLLLTDGDVHIRDDGRRATISLSDSDLLRLEGDSRTVRLLKELRRALGRMVERSLRSELAALPPSVQEEHGQLLALLAELLRGPCGSFDVRKTADD
As to B3, under “24 hpi (type n_24_v)”, the “target (unweighted spectral count)” value was found to be 10.

B4: LMNA (protein, UniProt P02545 1-661, looked up)
Prelamin-A/C: METPSQRRATRSGAQASSTPLSPTRITRLQEKEDLQELNDRLAVYIDRVRSLETENAGLRLRITESEEVVSREVSGIKAAYEAELGDARKTLDSVAKERARLQLELSKVREEFKELKARNTKKEGDLIAAQARLKDLEALLNSKEAALSTALSEKRTLEGELHDLRGQVAKLEAALGEAKKQLQDEMLRRVDAENRLQTMKEELDFQKNIYSEELRETKRRHETRLVEIDNGKQREFESRLADALQELRAQHEDQVEQYKKELEKTYSAKLDNARQSAERNSNLVGAAHEELQQSRIRIDSLSAQLSQLQKQLAAKEAKLRDLEDSLARERDTSRRLLAEKEREMAEMRARMQQQLDEYQELLDIKLALDMEIHAYRKLLEGEEERLRLSPSPTSQRSRGRASSHSSQTQGGGSVTKKRKLESTESRSSFSQHARTSGRVAVEEVDEEGKFVRLRNKSNEDQSMGNWQIKRQNGDDPLLTYRFPPKFTLKAGQVVTIWAAGAGATHSPPTDLVWKAQNTWGCGNSLRTALINSTGEEVAMRKLVRSVTVVEDDEDEDGDDLLHHHHGSHCSSSGDPAEYNLRSRTVLCGTCGQPADKASASGSGAQVGGPISSGSSASSVTVTRSYRSVGGSGGGSFGDNLVTRSYLLGNSSPRTQSPQNC
In the case of B4, the “target (unweighted spectral count)” value reads like this: (12 hpi (type n_12_v)) 7; (24 hpi (type n_24_v)) 8.

B5: HMGB1 (protein, UniProt P09429 1-215, looked up)
High mobility group protein B1: MGKGDPKKPRGKMSSYAFFVQTCREEHKKKHPDASVNFSEFSKKCSERWKTMSAKEKGKFEDMAKADKARYEREMKTYIPPKGETKKKFKDPNAPKRPPSAFFLFCSEYRPKIKGEHPGLSIGDVAKKLGEMWNNTAADDKQPYEKKAAKLKEKYEKDIAAYRAKGKPDAAKKGVVKAEKSKKKKEEEEDEEDEEDEEEEEDEEDEDEEEDDDDE
B5: the “target (unweighted spectral count)” value reads like this: (12 hpi (type n_12_v)) 7; (24 hpi (type n_24_v)) 6.

B6: HNANPA0 (protein, UniProt Q13151 1-305, looked up)
Heterogeneous nuclear …: MENSQLCKLFIGGLNVQTSESGLRGHFEAFGTLTDCVVVVNPQTKRSRCFGFVTYSNVEEADAAMAASPHAVDGNTVELKRAVSREDSARPGAHAKVKKLFVGGLKGDVAEGDLIEHFSQFGTVEKAEIIADKQSGKKRGFGFVYFQNHDAADKAAVVKFHPIQGHRVEVKKAVPKEDIYSGGGGGGSRSSRGGRGGRGRGGGRDQNGLSKGGGGGYNSYGGYGGGGGGGYNAYGGGGGGSSYGGSDYGNGFGGFGSYSQHQSSYGPMKSGGGGGGGGSSWGGRSNSGPYRGGYGGGGGYGGSSF
In the case of B6, the “target (unweighted spectral count)” value (12 hpi (type n_12_v)) amounted to 5 and the “target (unweighted spectral count)” value (24 hpi (type n_24_v)) came out at 7.

For the origin of these results see US20230407373A1 (priority 2020, published 2023).
